Test results published in patent US20210171647A1 (WUXI BIOLOGICS SHANGHAI, published 2021).

Legend:
human OX40-ECD.His T35A = biological target: T1, human OX40-ECD.His T35A (human, UniProt P43489 29-214); assay: ELISA, antibody coated, OX40-ECD.His mutant supernatant; relative to silent alanine substitutions;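 also: captured OX40 mutant protein detected with HRP-labelled anti-His antibody, absorbance read-out, scaled to the mean signal of control mutants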
T1 construct: extracellular domain; not shown: C-terminal His-tag
T1 sequence (looked up): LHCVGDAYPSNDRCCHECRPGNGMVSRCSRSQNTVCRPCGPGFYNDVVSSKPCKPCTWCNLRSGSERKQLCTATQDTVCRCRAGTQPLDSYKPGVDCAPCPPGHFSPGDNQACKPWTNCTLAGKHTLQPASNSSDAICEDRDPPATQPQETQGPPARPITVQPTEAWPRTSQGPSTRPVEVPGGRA

human OX40-ECD.His T148A = biological target: T2, human OX40-ECD.His T148A (human, UniProt P43489 29-214); assay: as above
T2 construct: extracellular domain; not shown: C-terminal His-tag
T2 sequence (looked up): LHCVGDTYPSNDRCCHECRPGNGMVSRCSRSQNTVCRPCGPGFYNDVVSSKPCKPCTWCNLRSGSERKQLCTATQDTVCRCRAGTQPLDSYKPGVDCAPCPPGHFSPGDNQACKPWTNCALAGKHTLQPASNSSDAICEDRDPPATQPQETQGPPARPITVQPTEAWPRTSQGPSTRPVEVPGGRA

human OX40-ECD.His N160A = biological target: T3, human OX40-ECD.His N160A (human, UniProt P43489 29-214); assay: as above
T3 construct: extracellular domain; not shown: C-terminal His-tag
T3 sequence (looked up): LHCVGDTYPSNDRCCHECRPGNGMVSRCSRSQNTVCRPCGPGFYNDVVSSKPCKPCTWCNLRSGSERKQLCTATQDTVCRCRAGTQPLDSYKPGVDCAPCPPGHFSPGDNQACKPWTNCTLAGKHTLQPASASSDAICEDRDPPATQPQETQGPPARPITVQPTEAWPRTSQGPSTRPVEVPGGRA

human OX40-ECD.His R110A = biological target: T4, human OX40-ECD.His R110A (human, UniProt P43489 29-214); assay: as above
T4 construct: extracellular domain; not shown: C-terminal His-tag
T4 sequence (looked up): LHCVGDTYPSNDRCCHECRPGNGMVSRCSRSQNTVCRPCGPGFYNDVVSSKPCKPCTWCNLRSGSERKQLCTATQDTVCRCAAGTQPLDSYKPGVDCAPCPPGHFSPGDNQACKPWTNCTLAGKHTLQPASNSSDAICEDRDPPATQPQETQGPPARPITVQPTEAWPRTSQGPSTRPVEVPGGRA

[1] = biological target: T5, mouse OX40 (mPro1) on transfected 293F cells (mouse, UniProt P47741 20-272); assay: FACS, transfected 293F cells, antibody 1 ug/mL
T5 construct: whole, on cells
T5 sequence (looked up): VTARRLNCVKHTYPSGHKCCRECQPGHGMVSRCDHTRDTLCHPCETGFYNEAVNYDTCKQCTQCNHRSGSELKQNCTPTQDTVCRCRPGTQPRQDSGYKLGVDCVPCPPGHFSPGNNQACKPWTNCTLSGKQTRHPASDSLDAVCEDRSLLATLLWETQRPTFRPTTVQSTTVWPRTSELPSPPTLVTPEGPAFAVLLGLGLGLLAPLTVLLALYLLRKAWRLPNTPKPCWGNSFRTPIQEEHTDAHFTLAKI
Method: (§1) Binding of antibodies to chimeric OX40 variants was analyzed by flow cytometry. […] Cells were analyzed using flow cytometer.

[2] = biological target: T6, human OX40, full-length, on cells (human, UniProt P43489 29-277); assay: FACS, transfected 293F cells, antibody 1 ug/mL
T6 construct: whole, on cells; also called hPro1; cell surface human OX40
T6 sequence (looked up): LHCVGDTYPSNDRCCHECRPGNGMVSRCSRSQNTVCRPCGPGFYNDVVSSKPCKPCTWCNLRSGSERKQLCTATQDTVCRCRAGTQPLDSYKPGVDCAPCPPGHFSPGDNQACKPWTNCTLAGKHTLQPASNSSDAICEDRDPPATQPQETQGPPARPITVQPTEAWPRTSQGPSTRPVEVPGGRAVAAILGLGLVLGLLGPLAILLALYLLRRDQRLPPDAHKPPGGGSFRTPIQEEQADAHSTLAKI
Method: as §1

[3] = biological target: T6, human OX40, full-length, on cells; assay: flow cytometry on activated human CD4+ T cells
Method: Briefly, human OX40-expressing CHO-K1 cells or activated human CD4⁺ T cells were transferred into 96-well U-bottom plates (Corning) at a density of 1×10⁵ cells/well. Testing antibodies were serially diluted in wash buffer (1×PBS/1% BSA) and incubated with cells at 4° C. for 1 h. After washing with 1×PBS/1% BSA, the secondary antibody goat anti-human IgG Fc-PE (Jackson ImmunoResearch Lab) was applied and incubated with cells at 4° C. in the dark for 1 h. The cells were then washed and resuspended in 1×PBS/1% BSA or fixed with 4% paraformaldehyde, and then analyzed by flow cytometry (BD).

[4] = biological target: T7, human OX40 extracellular domain (ECD) protein (human, UniProt P43489 29-214); assay: competition ELISA: human OX40 ECD coated, antibody titrated in a mix with a constant concentration of OX40L, bound OX40L detected at OD450
T7 construct: extracellular domain; also called human OX40 ECD; human OX40 protein; not shown: human Fc or His tag
T7 sequence (looked up): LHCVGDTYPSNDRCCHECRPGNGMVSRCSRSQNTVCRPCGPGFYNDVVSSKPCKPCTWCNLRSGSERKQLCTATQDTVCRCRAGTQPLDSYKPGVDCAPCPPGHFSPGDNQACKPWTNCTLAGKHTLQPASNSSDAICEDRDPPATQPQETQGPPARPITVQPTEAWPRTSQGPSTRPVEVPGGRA

human CD271 ECD = biological target: T8, human CD271 ECD (human, UniProt P08138 29-250); assay: ELISA on coated ECD, one antibody concentration (not given)
T8 construct: extracellular domain
T8 sequence (looked up): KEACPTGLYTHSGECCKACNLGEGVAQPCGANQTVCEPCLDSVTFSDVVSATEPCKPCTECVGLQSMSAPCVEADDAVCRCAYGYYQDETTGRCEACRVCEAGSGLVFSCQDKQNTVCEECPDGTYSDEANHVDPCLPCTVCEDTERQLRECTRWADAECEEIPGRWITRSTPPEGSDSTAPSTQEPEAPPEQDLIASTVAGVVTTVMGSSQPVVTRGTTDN

human 4-1BB (CD137) ECD = biological target: T9, human 4-1BB (CD137) ECD (human, UniProt Q07011 24-186); assay: as above
T9 construct: extracellular domain
T9 sequence (Q07011 24-186): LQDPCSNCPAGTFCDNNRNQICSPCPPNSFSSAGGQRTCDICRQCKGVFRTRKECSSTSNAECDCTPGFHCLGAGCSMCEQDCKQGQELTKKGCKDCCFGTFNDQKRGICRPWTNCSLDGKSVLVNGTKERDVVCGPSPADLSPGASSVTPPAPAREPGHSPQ
Method: (§2) Human OX40, CD40, 4-1BB (CD137) and CD271 ECD were coated on plates (Nunc) overnight at 4° C. After blocking and washing, testing antibodies were diluted in blocking buffer and added to the plates and incubated at room temperature for 1 h. The plates were then washed and subsequently incubated with secondary antibody goat anti-human IgG Fc-HRP (Bethyl) for 1 h. After washing, TMB substrate was added and the interaction was stopped by 2M HCl.

human CD40 ECD = biological target: T10, human CD40 ECD (human, UniProt P25942 21-193); assay: as above
T10 construct: extracellular domain
T10 sequence (P25942 21-193): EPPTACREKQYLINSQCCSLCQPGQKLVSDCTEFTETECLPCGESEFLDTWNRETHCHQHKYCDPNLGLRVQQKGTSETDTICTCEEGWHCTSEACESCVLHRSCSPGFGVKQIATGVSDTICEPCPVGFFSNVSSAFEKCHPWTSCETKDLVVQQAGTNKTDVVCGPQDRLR
Method: as §2

[5] = biological target: T7, human OX40 extracellular domain (ECD) …; assay: SPR, Biacore T200, antibody captured, OX40 as analyte
Method: Antibodies were characterized for affinity and binding kinetics to OX40 by SPR assay using Biacore T200 (GE). […] Then various concentrations of human or monkey OX40 and running buffer were flowed through the sensor chip at a flow rate of 30 μL/min for an association phase of 180 s, followed by dissociation. The association and dissociation curve was fit by 1:1 Langmuir binding model using the BIAevaluation T200 software.

[6] = biological target: T6, human OX40, full-length, on cells; assay: flow cytometry on human OX40 transfected CHO-K1 cells
Method: CHO-K 1 cells expressing human OX40 were transferred in to 96-well U-bottom plates (Corning) at a density of 5×10⁴ cells/mL. Testing antibodies were 1:2 serially diluted in wash buffer (1×PBS/1% BSA) and incubated with cells at 4° C. for 1 h. The secondary antibody goat anti-human IgG Fc FITC (3.2 moles FITC per mole IgG, Jackson Immunoresearch Lab) was added and incubated with cells at 4° C. in the dark for half an hour. The cells were then washed once, resuspended in 1×PBS/1% BSA and analyzed by flow cytometry (BD). Fluorescence intensity was converted to bound molecules/cell based on the quantitative beads Quantum™ MESF Kits (Bangs Laboratories, Inc.). The KD value of each antibody was calculated using Graphpad Prism5.

B1: 1.134.9-u1-IgG1L (antibody, V domains shown)
VH: QVQLQESGPGLVKPSGTLSLTCAVSGGSISSYNWWSWVRQPPGKGLEWIGEIYHGGNTNYNPSLKSRVTMSVDNSKNQFSLKLSSVTAADTAVYYCARAPGDWGGSPYFDFWGQGTLVTVSS
VL: SSELTQDPAVSVALGQTVRITCQGDNLRTYYASWYQQKPGQAPILLIYGRNKRPSGIPDRFSGSSSGNTASLTITGAQAEDEAAYYCNSRDSSGNPVVFGGGTKLTVL
notes: fully human IgG1, lambda
- Fold Change (human OX40-ECD.His T35A): 1.02
- Fold Change (human OX40-ECD.His T148A): 1
- Fold Change (human OX40-ECD.His N160A): 0.992
- Fold Change (human OX40-ECD.His R110A): 0.955
- MFI [1]: 44.4
- PE + % [1]: 0.937%
- MFI [2]: 9160
- PE + % [2]: 85.2%
- EC50 (read off the curve) [3]: 1 to 2 nM
- IC50 (read off the curve) [4]: ~1 nM
- binding result (human CD271 ECD): no binding
- binding result (human 4-1BB (CD137) ECD): no binding
- binding result (human CD40 ECD): no binding
- Kd [5]: 0.179 nM
- koff [5]: 3.7e-05 s⁻¹
- kon [5]: 207000 M⁻¹ s⁻¹
- EC50 (read off the curve) [6]: ~1 nM
